Laboratory results as given in patent US10398755B2, “Clusterin pharmaceuticals and treatment methods using the same” (UNIVERSITY OF SOUTHERN CALIFORNIA, priority 2009, dated 2019).

Tests used:
[1] = molecular target: T1, pro-MMP-9, MMP-9, MMP-9-ΔC (Mus musculus, UniProt P41245); assay: In vitro protein binding assay (CLU-His pull-down, gelatin zymography), MMP-9 forms
T1 construct: mixture of 30-100 ng of pro-MMP-9, MMP-9, and MMP-9-ΔC; pro-MMP-9, propeptide-cleaved MMP-9 (MMP-9), and MMP-9 with both propeptide and C-terminal region cleaved (MMP-9-ΔC); MMP-9 with both propeptide and C-terminal region cleaved (MMP-9-ΔC); purchased R&D Systems; host or cells: mouse myeloma cell line (NSO)
T1 sequence (P41245 20-730, stated change not applied): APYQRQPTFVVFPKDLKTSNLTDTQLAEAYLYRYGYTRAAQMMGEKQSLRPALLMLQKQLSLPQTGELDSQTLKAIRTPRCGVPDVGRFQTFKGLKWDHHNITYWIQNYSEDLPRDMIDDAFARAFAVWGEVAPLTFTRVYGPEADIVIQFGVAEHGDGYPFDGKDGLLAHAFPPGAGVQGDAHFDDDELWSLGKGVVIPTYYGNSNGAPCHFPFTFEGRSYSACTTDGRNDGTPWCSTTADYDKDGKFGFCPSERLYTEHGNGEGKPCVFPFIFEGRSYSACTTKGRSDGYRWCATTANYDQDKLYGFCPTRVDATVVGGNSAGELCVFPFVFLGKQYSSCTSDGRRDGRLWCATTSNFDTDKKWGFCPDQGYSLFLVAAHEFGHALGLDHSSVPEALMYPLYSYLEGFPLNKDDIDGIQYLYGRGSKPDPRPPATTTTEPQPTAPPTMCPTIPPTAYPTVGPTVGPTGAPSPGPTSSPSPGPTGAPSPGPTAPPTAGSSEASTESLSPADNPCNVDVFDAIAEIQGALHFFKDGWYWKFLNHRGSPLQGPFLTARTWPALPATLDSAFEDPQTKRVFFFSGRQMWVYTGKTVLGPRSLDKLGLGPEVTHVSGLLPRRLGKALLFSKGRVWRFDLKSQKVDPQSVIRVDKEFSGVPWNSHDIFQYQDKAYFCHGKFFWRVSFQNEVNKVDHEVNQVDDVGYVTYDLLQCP
Method: (§1) (A) Recombinant proteins, Pro-MMP-9, MMP-9, MMP-9-ΔC, CLU-His were incubated together, and bound to agarose beads coupled or uncoupled with Anti-(His)6 antibody in two different binding buffers containing Brij 35 concentrations, 0.04% or 0.002%. MMPs bound to the beads were obtained by washing with the corresponding binding buffer to resolve on gelatin zymography. Three different volumes of each sample were loaded to compare the relative density. (B) Pro-MMP-9 bound to CLU coupled to agarose beads, prepared as in (A), was incubated in the presence or absence of APMA for 1 h at RT, prior to separation of beads (B) and supernatant (S) fractions, which were resolved by zymography. Arrow indicates MMP-9 processed by APMA.
(§2) A mixture of MMP-2, MMP-9, and C-terminal truncated MMP-9 (9-ΔC) was incubated with His-tagged CLU, used in a pull-down assay and resolved on a gelatin zymography gel. The input and bound samples were loaded in a series of dilution.
(§3) To make various processed forms of MMPs, pro-MMPs were incubated with 1 mM APMA in TSCB buffer at 37° C. for 4 h to make C-terminal truncated processed MMP-9 (MMP-9-ΔC) [Murphy, 1995]. CLU-His (2.5 μg) was incubated with mixture of 30-100 ng of pro-MMP-9, MMP-9, and MMP-9-ΔC, in the TSCB buffer with 0.002 or 0.04% Brij 35 for 1 h at 4° C. followed by additional incubation for 1.5 h with anti-His tag antibody-conjugated agarose beads. The beads were washed three times with the binding buffer, and dissolved in 1×SDS sample loading buffer. Relative amounts of bound MMPs were assessed on the gelatin zymography. In order to perform CLU binding domain analysis, pro-MMP-9 bound to CLU-coupled beads was prepared, as described above, and then divided into two aliquots. They were incubated with and without 1 mM APMA at RT for 1 h in TSCB buffer on the rotator. The beads (B) were spun down and solution (S) was separated. The beads were washed with TSCB and resuspended in SDS sample loading buffer. Equivalent volume of S and B fraction were subjected to gelatin zymography.
(§4) Next, we tested the interaction of secreted CLU using mouse recombinant proteins. We used purified recombinant proteins of MMP-2, MMP-9, and CLU that were secreted from a mouse myeloma cell line (NSO). All of the proteins were purchased from R&D Systems. A mixture of MMP-2, MMP-9, and C-terminal truncated MMP-9 (9-ΔC) was incubated with His-tagged CLU, and subjected to the pull-down assay, using 150 mM NaCl-containing binding buffer and anti-His tag antibody resins. Portions of the input samples (Input) and proteins bound to the antibody (Bound) were resolved on the gelatin zymography gel.
(§5) The recombinant CLU contains a (His)6-Tag at the C-terminus of the protein, which was used for pull-down experiments with anti-His tag antibody beads. It was previously reported that CLU also binds to MT6-MMP/mmp-25 and that the hemopexin domain in the MMP C-terminal region is required for their interaction (Matsuda et al., 2003). To use as an internal control for the binding experiment, we removed part of MMP-9 (MMP-9-ΔC) by promoting self-processing by APMA (4-aminophenylmercuric acetate) treatment. For the in vitro binding assay we mixed MMP-2, MMP-9, and MMP-9-ΔC (FIG. 7).
(§6) Since different detergent concentrations affected the extent of inhibition of MMP-9 activity by CLU, we tested whether detergents may influence the binding affinity of CLU for MMP-9. To test this possibility, CLU pull down assay was performed. […]

[2] = tested on: pro-MMP-9, MMP-9, MMP-9-ΔC; assay: as above; design: species or system mouse
Method: as §1, §2, §3, §4, §5, §6

B1: CLU: secreted disulfide-linked heterodimeric glycoprotein (70-80 KD); assays used recombinant mouse CLU with C-terminal (His)6 (protein, UniProt Q06890 22-448, looked up)
Clusterin: EQEVSDNELQELSTQGSRYINKEIQNAVQGVKHIKTLIEKTNAERKSLLNSLEEAKKKKEDALEDTRDSEMKLKAFPEVCNETMMALWEECKPCLKHTCMKFYARVCRSGSGLVGQQLEEFLNQSSPFYFWMNGDRIDSLLESDRQQSQVLDAMQDSFARASGIIDTLFQDRFFARELHDPHYFSPIGFPHKRPHFLYPKSRLVRSLMSPSHYGPPSFHNMFQPFFEMIHQAQQAMDVQLHSPAFQFPDVDFLREGEDDRTVCKEIRRNSTGCLKMKGQCEKCQEILSVDCSTNNPAQANLRQELNDSLQVAERLTEQYKELLQSFQSKMLNTSSLLEQLNDQFNWVSQLANLTQGEDKYYLRVSTVTTHSSDSEVPSRVTEVVVKLFDSDPITVVLPEEVSKDNPKFMDTVAEKALQEYRRKSRAE
modifications: C-terminal His6 tag
sensitivity of pro-MMP-9 affinity for CLU to detergent concentration ([1]; 0.002% vs 0.04% Brij 35): not sensitive to the detergent concentration | affinity of pro-MMP-9 for CLU relative to the other forms of MMP-9 ([1]; band densities, Image J): at least 10 times | binding of MMP-9 and MMP-9-ΔC to CLU at high detergent ([2]; 0.04% Brij 35): do not bind to CLU at the high Brij 35 concentration | binding of C-terminal truncated MMP-9 to His-tagged CLU ([2]; 150 mM NaCl binding buffer): did not | binding of MMP-9 to His-tagged CLU (bound vs input) ([2]; 150 mM NaCl binding buffer): highly enriched in the bound sample
